Test results: paper PMC12038025

Tests used:
[1] = system: O35161; test: SEC-MALS
[2] = molecular target: CELSR1 extracellular region, CADH1 through GAIN domains (residues 255-2477) (mouse) (UniProt O35161); test: SEC-MALS

stoichiometry N [2] | Substance | percent dimer in the main peak [1]
– | CELSR1 extracellular region, CADH1 through GAIN domains (residues 255-2477) | roughly 60% dimer
2 | CELSR1 extracellular region, CADH1 through GAIN domains (residues 255-2477), O35161 255-2477 | –
